These results are taken from paper PMC8998336 (2022).

Where a chain is given by its changes, count along the chain named. In names and notes the source's numbering stands.

For assay [1], the target named is T1, human cationic trypsin (TRY1) p.S200A (human, UniProt P07477 24-247, p.S200A). Nature of the assay: SPR.
Assay [2] deals with T1, human cationic trypsin (TRY1) p.S200A. Nature of the assay: SPR. The source holds these as a separate data set.
Assay [3] has as its target human cationic trypsin (TRY1) WT (human, UniProt P07477 24-247). Put plainly: trypsin activity assay.

B1: serine protease inhibitor Kazal-type 1 (SPINK1) p.N34S (natural protein)
chain: DSLGREAKCYSELNGCTKIYDPVCGTDGNTYPNECVLCFENRKRQTSILIQKSGPC
On to B1, for which the dissociation rate constant (koff) in assay [1] was determined as 0.0002 s⁻¹. The molecule further showed a Kd in assay [2] of 0.863 nM. In assay [3], this molecule displayed an inhibition constant (Ki) of 0.045 nM.

B2: serine protease inhibitor Kazal-type 1 (SPINK1) WT (natural protein)
chain: B1 chain with S11N
B2 gave a koff in assay [1] of 0.0002 s⁻¹. The molecule further had a Kd in assay [2] of 0.8 nM. Further, in assay [3], the inhibitory constant (Ki) worked out at 0.028 nM.
